Reference: publication PMC5412928, “Engineered ligand‐based VEGFR antagonists with increased receptor binding affinity more effectively inhibit angiogenesis” (Bioengineering & Translational Medicine, 2017)

Columns and labels:
[1] = target: T1, VEGFR2 on HUVECs (human (endogenous in HUVECs), UniProt P35968 20-1356); experiment: flow cytometry on cells; apparent; soluble FLAG-tagged scVEGF variants titrated on 50,000 serum-starved HUVECs (bear VEGFR2 and αvβ3 integrin) in integrin binding buffer, 4°C, 4–6 hr; phycoerythrin anti-FLAG antibody; sigmoidal fit; settings: one partner purified
T1 construct: VEGFR2, endogenous on HUVECs; HUVECs also bear αvβ3 integrin; source: endogenous, on human umbilical vein endothelial cells (HUVECs)

[2] = target: T2, human VEGFR2 on PAE/KDR cells (human, UniProt P35968 20-1356); experiment: flow cytometry on cells; soluble FLAG-tagged scVEGF variants titrated on 50,000 PAE/KDR cells in integrin binding buffer (20 mM Tris pH 7.5, 100 mM NaCl, 1 mM MgCl2, 1 mM MnCl2, 2 mM CaCl2, 1 mg/ml BSA), 4°C, 4–6 hr; phycoerythrin anti-FLAG antibody; sigmoidal fit of mean fluorescence; settings: one partner purified
T2 construct: VEGFR2 (KDR), human, stably expressed on porcine aortic endothelial cells; also called vascular endothelial growth factor receptor 2; source: porcine aortic endothelial (PAE) cells stably transfected to express human VEGFR2 (PAE/KDR cells), on cells
T2 sequence (P35968 20-1356): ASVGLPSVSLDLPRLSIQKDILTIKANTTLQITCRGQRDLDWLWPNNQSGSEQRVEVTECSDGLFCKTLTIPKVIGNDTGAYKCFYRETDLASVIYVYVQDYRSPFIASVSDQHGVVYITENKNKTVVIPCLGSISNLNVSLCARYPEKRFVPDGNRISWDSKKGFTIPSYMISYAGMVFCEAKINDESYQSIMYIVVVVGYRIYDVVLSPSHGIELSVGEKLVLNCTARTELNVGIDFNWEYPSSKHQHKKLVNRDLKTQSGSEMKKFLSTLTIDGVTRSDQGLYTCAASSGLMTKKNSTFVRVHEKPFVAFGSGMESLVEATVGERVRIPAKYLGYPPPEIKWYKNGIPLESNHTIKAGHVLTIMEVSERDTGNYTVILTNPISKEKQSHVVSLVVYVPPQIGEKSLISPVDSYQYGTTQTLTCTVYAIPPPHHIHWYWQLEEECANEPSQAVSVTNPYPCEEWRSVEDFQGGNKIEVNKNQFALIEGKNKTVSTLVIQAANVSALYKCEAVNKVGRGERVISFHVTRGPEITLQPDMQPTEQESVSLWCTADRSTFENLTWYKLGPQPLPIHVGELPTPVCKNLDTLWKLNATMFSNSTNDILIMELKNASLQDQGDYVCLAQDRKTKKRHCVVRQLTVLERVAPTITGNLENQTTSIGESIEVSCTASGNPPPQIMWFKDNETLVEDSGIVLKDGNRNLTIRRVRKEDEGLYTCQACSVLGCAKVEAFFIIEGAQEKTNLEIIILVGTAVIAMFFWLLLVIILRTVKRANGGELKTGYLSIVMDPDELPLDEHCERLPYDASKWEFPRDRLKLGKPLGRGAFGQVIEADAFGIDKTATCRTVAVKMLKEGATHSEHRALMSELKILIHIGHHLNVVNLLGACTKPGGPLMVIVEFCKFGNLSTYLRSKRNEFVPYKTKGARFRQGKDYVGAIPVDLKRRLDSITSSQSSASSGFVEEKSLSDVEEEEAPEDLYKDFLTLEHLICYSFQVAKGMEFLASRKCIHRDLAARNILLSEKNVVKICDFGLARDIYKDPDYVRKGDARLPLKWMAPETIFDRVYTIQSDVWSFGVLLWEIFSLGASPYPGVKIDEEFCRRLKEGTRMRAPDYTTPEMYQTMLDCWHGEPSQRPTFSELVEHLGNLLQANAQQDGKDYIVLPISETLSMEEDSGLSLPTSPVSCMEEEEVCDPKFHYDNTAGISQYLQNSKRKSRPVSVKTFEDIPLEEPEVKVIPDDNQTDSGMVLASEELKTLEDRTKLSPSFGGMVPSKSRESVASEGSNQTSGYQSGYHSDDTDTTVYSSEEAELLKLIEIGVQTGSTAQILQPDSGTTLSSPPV

T1 sequence (P35968 20-1356): as above

fold tighter binding of scVEGFmE7I than of scVEGFmut [1] [fold] | Kd [2] [nM] | Kd [1] [nM] | Binder
≥ 330 | 27 |  | scVEGFmut (ligand) APMAEGGGQNHHEVVKAMDVYQRSYCHPIETLVDIFQEYPDEIEYIFKPSCVPLMRCGGCCNDAGLECVPTEESNITMQIMRIKPHQGQHIGEMSFLQHNKCECRPKKDGSTSGSGKSSEGKGAPMAEGGGQNHHEVVKFMDVYQRSYCHPIETLVDIFQEYPDEIEYAFKPSCVPLMRCGGCCNDEGLECVPTEESNITMQIMRAKPHQGQHIGEMSFLQHNKCECRPKKD
 |  | 3.8 | scVEGFwt (ligand) APMAEGGGQNHHEVVKFMDVYQRSYCHPIETLVDIFQEYPDEIEYIFKPSCVPLMRCGGCCNDEGLECVPTEESNITMQIMRIKPHQGQHIGEMSFLQHNKCECRPKKDGSTSGSGKSSEGKGAPMAEGGGQNHHEVVKFMDVYQRSYCHPIETLVDIFQEYPDEIEYIFKPSCVPLMRCGGCCNDEGLECVPTEESNITMQIMRIKPHQGQHIGEMSFLQHNKCECRPKKD
